We go through 13 substances from IntAct's records for PubMed 21642537.

Test [1] concerns the target T1, PKD2, Q13563-1.
T1 sequence: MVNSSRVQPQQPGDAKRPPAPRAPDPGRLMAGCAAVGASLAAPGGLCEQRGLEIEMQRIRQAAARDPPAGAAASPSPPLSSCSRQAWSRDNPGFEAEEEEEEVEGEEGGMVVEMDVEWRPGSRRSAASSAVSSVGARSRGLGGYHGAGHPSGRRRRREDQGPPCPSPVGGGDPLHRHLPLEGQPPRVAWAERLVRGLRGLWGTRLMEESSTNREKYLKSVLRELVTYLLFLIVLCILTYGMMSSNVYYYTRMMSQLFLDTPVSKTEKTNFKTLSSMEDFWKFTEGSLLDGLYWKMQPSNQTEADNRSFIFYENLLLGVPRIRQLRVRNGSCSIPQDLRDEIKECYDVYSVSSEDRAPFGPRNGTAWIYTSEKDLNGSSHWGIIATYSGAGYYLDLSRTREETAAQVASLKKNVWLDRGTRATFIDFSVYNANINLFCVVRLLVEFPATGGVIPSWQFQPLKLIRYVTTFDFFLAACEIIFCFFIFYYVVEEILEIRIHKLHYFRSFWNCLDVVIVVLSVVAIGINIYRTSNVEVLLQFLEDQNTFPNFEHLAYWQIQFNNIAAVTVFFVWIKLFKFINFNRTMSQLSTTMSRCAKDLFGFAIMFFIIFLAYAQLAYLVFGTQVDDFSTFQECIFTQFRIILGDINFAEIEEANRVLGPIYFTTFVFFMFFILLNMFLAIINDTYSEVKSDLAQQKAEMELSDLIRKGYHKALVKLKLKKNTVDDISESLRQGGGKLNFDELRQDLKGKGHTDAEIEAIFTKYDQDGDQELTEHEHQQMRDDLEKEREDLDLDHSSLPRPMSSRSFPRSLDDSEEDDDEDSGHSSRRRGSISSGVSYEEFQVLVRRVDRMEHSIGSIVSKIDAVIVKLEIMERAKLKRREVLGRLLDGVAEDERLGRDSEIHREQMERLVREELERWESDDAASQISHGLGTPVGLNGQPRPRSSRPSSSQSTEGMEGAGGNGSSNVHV

The target of test [2] is T1, PKD2, Q13563-1. The source holds these as a separate data set.

“Polycystin-1 (Homo sapiens) (from UniProt P98161-3) F4225A;R4227A”: in test [1], the “effect of a mutation on the interaction” value was “decreasing interaction strength”.
The same measure, in the same setting: the result for “Polycystin-1 (Homo sapiens) (from UniProt P98161-3) L4238A;L4242A” reads “disrupting interaction strength”.
The same measure, in the same setting: then “Polycystin-1 (Homo sapiens) (from UniProt P98161-3) L4228A;N4229A”, with “decreasing interaction strength”.
For “Polycystin-1 (Mus musculus), O08852 L4229A;E4230A”, the “effect of a mutation on the interaction” value in test [2] is on record as “decreasing interaction strength”.
With “Polycystin-1 (Homo sapiens) (from UniProt P98161-3) L4238A”, in test [1], the “effect of a mutation on the interaction” value is “decreasing interaction strength”.
For “Polycystin-1 (Mus musculus), O08852 L4229A;L4233A”, in test [2], the “effect of a mutation on the interaction” value is given as “decreasing interaction strength”.
With “Polycystin-1 (Homo sapiens) (from UniProt P98161-3) L4238A;E4239A”, the “effect of a mutation on the interaction” value in test [1] is recorded as “disrupting interaction strength”.
Same read-out and setting: the result for “Polycystin-1 (Homo sapiens) (from UniProt P98161-3) F4225A;L4228A” reads “decreasing interaction strength”; that for “Polycystin-1 (Homo sapiens) (from UniProt P98161-3) Y4236R”, “decreasing interaction strength”; that for “Polycystin-1 (Homo sapiens) (from UniProt P98161-3) V4217A;L4228A”, “decreasing interaction strength”.
With “Polycystin-1 (Homo sapiens) (from UniProt P98161-3) D4234A;Y4236A”, the “effect of a mutation on the interaction” value in test [1] is “decreasing interaction strength”.
Regarding “Polycystin-1 (Homo sapiens) (from UniProt P98161-3) L4238A;L4242A;L4245A”, the “effect of a mutation on the interaction” value in test [1] is on record as “decreasing interaction strength”.
Still for that read-out and setting: the result for “Polycystin-1 (Homo sapiens) (from UniProt P98161-3) D4234R” reads “decreasing interaction strength”.
